Numbering of substitutions follows the chain as printed.
T1: hBCMA-mIgG2a (human; mouse, UniProt Q02223 1-54, limits assumed)
T1 construct: not shown: mouse IgG2a portion ('mIgG2a')
T1 sequence: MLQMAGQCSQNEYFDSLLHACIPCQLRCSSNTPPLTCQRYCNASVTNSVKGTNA

T2: human BCMA on BCMA overexpressing CHO cells (human, UniProt Q02223 1-184)
T2 construct: also called hBCMA CHO; Hu BCMA (FACS)
T2 chain: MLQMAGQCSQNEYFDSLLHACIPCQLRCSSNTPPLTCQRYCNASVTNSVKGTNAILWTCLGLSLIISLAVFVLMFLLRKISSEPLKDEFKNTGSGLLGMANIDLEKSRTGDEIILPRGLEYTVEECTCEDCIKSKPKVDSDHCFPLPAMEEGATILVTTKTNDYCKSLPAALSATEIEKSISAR

T3: hBCMA-HIS antigen (human, UniProt Q02223 1-54)
T3 construct: It may be the same protein as Bio-huBCMA-His without, or with, biotin; also called human BCMA-6His; not shown: His tag
T3 sequence: T1 sequence

T4: human BCMA protein (Octet; construct not stated) (human, UniProt Q02223 1-54, limits assumed)
T4 sequence: T1 sequence

B1: anti-BCMA scFv clone from phage display, first row of Table 3 (VH …..., VL with LCDR3 …) (scFv, V domains shown)
VH: QITLRESGGDVVQPGRSLRLSCAASGFTFSSYAIHWVRQAPGKGLEWVAVTWHDGSNKYYAESVMGRFTISRDNSKNTLYLHMNSLRAEDTGVYYCARAKFGEPQYFQHWGQGTLVTVSS
VL: DIVMTQSPSFLSASVGDRVTITCRASQGISSYLAWYQQKPGKAPKLLIYAASTLQSGVPSRFSGSGSGTEFTLTISSLQPEDFATYYCQQLNSYPWTFGQGTKVDIK
B2: anti-BCMA scFv clone from phage display, second row of Table 3 (VH …..., VL with LCDR3 …) (scFv, V domains shown)
VH: B1 VH
VL: B1 VL with S30N, S31N, K42I, S63G, N92K, W96F, Q100P, D105E
B3: Ab 2, lead anti-BCMA clone of Table 4 (antibody, V domains shown)
VH: B1 VH
VL: B1 VL with S30N, S31N, K42I, S63G, N92K, W96F, Q100P, D105E
B4: anti-BCMA scFv clone from phage display, third row of Table 3 (VH …..., VL with LCDR3 …) (scFv, V domains shown)
VH: B1 VH with Q1E, I2V, T3Q, R5V, L115T
VL: B1 VL with W96F, Q100P
B5: anti-BCMA scFv clone from phage display, first row of Table 3 (VH QITLRESGG..., VL with LCDR3 QQLNSYPWT) (scFv, V domains shown)
VH: B1 VH
VL: B1 VL
notes: Tested as scFv in periplasmic extract; also called Ab 1
B6: Ab 3, lead anti-BCMA clone of Table 4 (antibody, V domains shown)
VH: B1 VH with Q1E, I2V, T3Q, R5V, L115T
VL: B1 VL with W96F, Q100P

Key:
[1] = target: Bio-cyBCMA-His (biotinylated cynomolgus BCMA with His tag) (cynomolgus); assay: ELISA, scFv periplasmic extract on biotinylated cynomolgus BCMA-His
Chain of Bio-cyBCMA-His (biotinylated cynomolgus BCMA with His tag) (cynomolgus) (chain, as listed by the source): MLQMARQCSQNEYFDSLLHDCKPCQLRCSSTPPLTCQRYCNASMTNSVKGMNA

[2] = target: T1, hBCMA-mIgG2a; assay: Octet (BLI), hBCMA-mIgG2a captured on sensor tips
[3] = target: T2, human BCMA on BCMA overexpressing CHO …; assay: flow cytometry on human BCMA overexpressing CHO cells
Procedure: Anti-BCMA clones were tested for on-cell binding by FACS using BCMA overexpressing CHO cells. […] These samples were washed appropriately and assessed on the Attune NxT Flow Cytometer (Thermo Fisher Scientific). FACS analysis was performed in FlowJo.

[4] = target: T3, hBCMA-HIS antigen; assay: Octet (BLI), hBCMA-HIS antigen captured on sensor tips
[5] = target: T4, human BCMA protein (Octet; construct …); assay: Octet (BLI), scFv periplasmic extract, human BCMA captured on sensor tips
Procedure: An Octet binding assay was performed using human BCMA protein with a panel of anti-BCMA clones for binding characterization. Human BCMA was first captured onto the appropriately coated Octet sensor tips, then positioned into wells containing the anti-BCMA clones for association. After the sensor tip was placed in the dissociation wells, the response of the interaction was calculated for each anti-BCMA clone and corresponding human BCMA protein.

Row | Binder | PE Elisa Bio-cyBCMA-His [1] | Kd [2] | koff [2] | kon [2] | EC50 [3] | Kd [4] | koff [4] | kon [4] | further results
1 | B1 | 0.147 | – | – | – | – | – | – | – | –
2 | B2 | 0.122 | – | – | – | – | – | – | – | –
3 | B3 | – | 0.0117 nM | 4.44e-06 s⁻¹ | 379000 M⁻¹ s⁻¹ | 0.144 µg/mL | 0.0788 nM | 3.77e-05 s⁻¹ | 479000 M⁻¹ s⁻¹ | –
4 | B4 | 0.126 | – | – | – | – | – | – | – | –
5 | B5 | – | – | – | – | – | – | – | – | koff [5]: 0.000369 s⁻¹
6 | B6 | – | < 0.001 nM | < 1e-07 s⁻¹ | 308000 M⁻¹ s⁻¹ | 0.117 µg/mL | 0.0608 nM | 1.33e-05 s⁻¹ | 219000 M⁻¹ s⁻¹ | –

— US20240350544A1 (Takeda / Millennium, published 2024)
